Reference: patent publication US10519238 (dated 2019)

What was measured:
[1] = target: recombinant human galectin-1 (R&D Systems) (UniProt P09382 2-135); experiment: SPR (BIAcore)
[2] = target: T1, recombinant murine galectin-1 (R&D Systems) (UniProt P16045 2-135); experiment: SPR (BIAcore)
T1 chain: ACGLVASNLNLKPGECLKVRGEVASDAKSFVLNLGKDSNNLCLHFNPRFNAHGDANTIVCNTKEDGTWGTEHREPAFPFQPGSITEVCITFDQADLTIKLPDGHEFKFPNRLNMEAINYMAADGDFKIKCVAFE

Sequence of recombinant human galectin-1 (R&D Systems) (P09382 2-135): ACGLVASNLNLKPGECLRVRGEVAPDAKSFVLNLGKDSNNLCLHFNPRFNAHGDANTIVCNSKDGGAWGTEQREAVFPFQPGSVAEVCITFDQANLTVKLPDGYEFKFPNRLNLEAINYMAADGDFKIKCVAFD

B1: anti-Gal1 monoclonal antibody 8A12.H9.H10 (antibody, V domains shown)
VH: QAYLQQSGAELVRPGASVRMSCKASGYTFTRYNMHWVKQTPRQGLEWIGRIYPGNGDTSYNQKFKGKATLTVDKSSSTAYMQLSSLTSEDSAVYFCTVWDYWGQGTTLTVSS
VL: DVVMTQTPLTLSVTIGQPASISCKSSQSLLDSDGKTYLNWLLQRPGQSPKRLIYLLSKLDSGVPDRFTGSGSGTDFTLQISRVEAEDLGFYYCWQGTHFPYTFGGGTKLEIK
[1]
  Kd: 0.071 µM
[2]
  Kd: 0.0266 µM
